What was measured:
[1] = biological target: T1, Human FcRn expressed on MDCK II clone 15 cells (human FcRn and human B2M) (human, UniProt P55899 24-365); assay: cell-based or functional assay
[2] = biological target: T2, Cynomolgus macaque FcRn expressed on MDCK II clone 40 cells (cynomolgus macaque FcRn and B2M) (cynomolgus macaque, UniProt Q8SPV9 24-365; Q8SPW0 21-119); assay: quantitative flow cytometry on MDCK II clone 40 cells, pH 6.0, mean of n=3
T2 construct: whole, on cells; also called Cyno FcRn
Source text: (§1) Specific binding of antibody to FcRn across a range of antibody concentrations was used to determine KD.

[3] = biological target: T2, Cynomolgus macaque FcRn expressed on …; assay: quantitative flow cytometry on MDCK II clone 40 cells, pH 7.4, mean of n=3
[4] = biological target: T3, Human FcRn extracellular domain (non-covalent complex of human FcRn alpha chain extracellular domain and … (human, UniProt P55899 24-297; P61769 21-119); assay: SPR Biacore T200, IgG4P captured by anti-human Fc, hFcRn ECD/b2M as analyte, pH 6.0, run 1
T3 construct: also called hFcRn; hFcRn alpha chain ECD region with human beta 2 microglobulin
Procedure: (§2) Biomolecular interaction analysis using surface plasmon resonance technology (SPR) was performed on a Biacore T200 system (GE Healthcare) and binding to human FcRn extracellular domain determined.
(§3) The surface was regenerated by 2×60 s 50 mM HCl at 10 μl/min for the running buffer at pH6 or by 60 s 40 mM HCl and 30 s 10 mM NaOH for the running buffer at pH7.4. The data was analysed using T200 evaluation software (version 1.0) using the 1:1 binding model with local Rmax.

[5] = biological target: T3, Human FcRn extracellular domain …; assay: SPR Biacore T200, IgG4P captured by anti-human Fc, hFcRn ECD/b2M as analyte, pH 6.0, run 2
Procedure: as §2, §3

[6] = biological target: T3, Human FcRn extracellular domain …; assay: SPR Biacore T200, IgG4P captured by anti-human Fc, hFcRn ECD/b2M as analyte, pH 6.0, run 3
Procedure: as §2, §3

[7] = biological target: T3, Human FcRn extracellular domain …; assay: SPR Biacore T200, IgG4P captured by anti-human Fc, hFcRn ECD/b2M as analyte, pH 7.4, run 1
Procedure: as §2, §3

[8] = biological target: T3, Human FcRn extracellular domain …; assay: SPR Biacore T200, IgG4P captured by anti-human Fc, hFcRn ECD/b2M as analyte, pH 7.4, run 2
Procedure: as §2, §3

[9] = biological target: T3, Human FcRn extracellular domain …; assay: SPR Biacore T200, IgG4P captured by anti-human Fc, hFcRn ECD/b2M as analyte, pH 7.4, run 3
Procedure: as §2, §3

[10] = biological target: T3, Human FcRn extracellular domain …; assay: SPR Biacore T200, IgG4P captured by anti-human Fc, hFcRn ECD/b2M as analyte, pH 6.0, mean of 3
Procedure: as §2, §3

[11] = biological target: T3, Human FcRn extracellular domain …; assay: SPR Biacore T200, IgG4P captured by anti-human Fc, hFcRn ECD/b2M as analyte, pH 7.4, mean of 3
Procedure: as §2, §3

[12] = biological target: T1, Human FcRn expressed on MDCK II clone …; assay: quantitative flow cytometry, AlexaFluor 488-labelled antibody on MDCK II clone 15 cells, pH 6.0, mean of n=3
Procedure: as §1
(§4) The final antibody concentrations ranged from 400 nM to 0.003 nM. The cells were washed in ice cold Facs buffer then analysed by flow cytometry using a Guava flow cytometer (Millipore, UK). Titration data sets were also produced for isotype control antibodies for each antibody format to determine non-specific binding. The number of moles of bound antibody was calculated using interpolated values from a standard curve generated from beads comprised of differing amounts of fluorescent dye. Geometric mean fluorescence values were determined in the flow cytometric analyses of cells and beads. Non-specific binding was subtracted from the anti-FcRn antibody values and the specific binding curve generated was analysed by non-linear regression using a one-site binding equation (Graphpad Prism®) to determine the KD. Data is representative of 3 experiments.

[13] = biological target: T1, Human FcRn expressed on MDCK II clone …; assay: quantitative flow cytometry, AlexaFluor 488-labelled antibody on MDCK II clone 15 cells, pH 7.4, mean of n=3
Procedure: as §1, §4

T2 sequence (Q8SPV9 24-365, chain 1 of 2): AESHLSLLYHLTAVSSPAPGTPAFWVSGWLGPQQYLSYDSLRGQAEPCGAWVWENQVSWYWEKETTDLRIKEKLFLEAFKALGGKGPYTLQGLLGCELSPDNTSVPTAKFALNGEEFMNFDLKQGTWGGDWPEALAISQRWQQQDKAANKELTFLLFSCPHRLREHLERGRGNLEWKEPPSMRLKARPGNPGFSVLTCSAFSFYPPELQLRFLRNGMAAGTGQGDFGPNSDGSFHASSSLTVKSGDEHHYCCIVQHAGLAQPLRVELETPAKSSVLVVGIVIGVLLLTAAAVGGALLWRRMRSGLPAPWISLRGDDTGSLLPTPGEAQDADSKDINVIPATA
T2 sequence (Q8SPW0 21-119, chain 2 of 2): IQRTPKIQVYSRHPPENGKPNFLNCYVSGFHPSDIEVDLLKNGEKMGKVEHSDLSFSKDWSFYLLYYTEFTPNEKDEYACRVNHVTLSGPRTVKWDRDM

B1: CA170_1638.g49 IgG4P (antibody)
heavy: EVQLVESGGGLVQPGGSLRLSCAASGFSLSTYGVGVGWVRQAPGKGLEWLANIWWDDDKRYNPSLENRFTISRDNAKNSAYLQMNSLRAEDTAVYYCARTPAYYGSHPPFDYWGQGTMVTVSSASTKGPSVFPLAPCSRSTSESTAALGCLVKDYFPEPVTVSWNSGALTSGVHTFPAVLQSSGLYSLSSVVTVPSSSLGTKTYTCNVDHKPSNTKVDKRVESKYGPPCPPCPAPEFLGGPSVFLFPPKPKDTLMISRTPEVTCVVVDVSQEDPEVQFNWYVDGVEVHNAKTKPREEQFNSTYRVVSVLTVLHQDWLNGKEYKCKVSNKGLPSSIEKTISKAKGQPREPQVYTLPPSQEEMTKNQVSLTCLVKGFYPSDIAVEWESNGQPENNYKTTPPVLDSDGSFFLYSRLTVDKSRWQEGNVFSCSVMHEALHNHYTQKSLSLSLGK
light: DIQMTQSPSSLSASVGDRVTITCRTSEDIYTNLAWYQQKPGKVPKLLIYVAKTLQEGVPSRFSGSGSGTHYTLTISSLQPEDVATYYCLQGFKFPWTFGGGTKVEIKRTVAAPSVFIFPPSDEQLKSGTASVVCLLNNFYPREAKVQWKVDNALQSGNSQESVTEQDSKDSTYSLSSTLTLSKADYEKHKVYACEVTHQGLSSPVTKSFNRGEC
notes: In the flow cytometry assays the antibody was labelled with AlexaFluor 488; also called 1638.49 g IgG4
IgG recycling in MDCK II clone 15 cells, EC50 [1]: 0.31 nM | apical to basolateral transcytosis of human IgG in MDCK II clone 15 cells, EC50 [1]: 2.4 nM | Kd [2]: 0.43 nM | Kd [3]: 0.3 nM | Kd [4]: 0.129 nM | koff [4]: 0.000143 s⁻¹ | kon [4]: 1.1e+06 M⁻¹ s⁻¹ | Kd [5]: 0.126 nM | koff [5]: 0.000139 s⁻¹ | kon [5]: 1.1e+06 M⁻¹ s⁻¹ | Kd [6]: 0.127 nM | koff [6]: 0.00014 s⁻¹ | kon [6]: 1.11e+06 M⁻¹ s⁻¹ | Kd [7]: 0.0257 nM | koff [7]: 2.51e-05 s⁻¹ | kon [7]: 975000 M⁻¹ s⁻¹ | Kd [8]: 0.0332 nM | koff [8]: 3.19e-05 s⁻¹ | kon [8]: 962000 M⁻¹ s⁻¹ | Kd [9]: 0.0293 nM | koff [9]: 2.82e-05 s⁻¹ | kon [9]: 962000 M⁻¹ s⁻¹ | Kd [10]: 0.127 nM | koff [10]: 0.000141 s⁻¹ | kon [10]: 1.1e+06 M⁻¹ s⁻¹ | Kd [11]: 0.0294 nM | koff [11]: 2.84e-05 s⁻¹ | kon [11]: 967000 M⁻¹ s⁻¹ | Kd [12]: 0.22 nM | Kd [13]: 0.2 nM

B2: CA170_1638.g49 FabFv (bispecific antibody)
heavy: EVQLVESGGGLVQPGGSLRLSCAASGFSLSTYGVGVGWVRQAPGKGLEWLANIWWDDDKRYNPSLENRFTISRDNAKNSAYLQMNSLRAEDTAVYYCARTPAYYGSHPPFDYWGQGTMVTVSSASTKGPSVFPLAPSSKSTSGGTAALGCLVKDYFPEPVTVSWNSGALTSGVHTFPAVLQSSGLYSLSSVVTVPSSSLGTQTYICNVNHKPSNTKVDKKVEPKSCSGGGGSGGGGTGGGGSEVQLLESGGGLVQPGGSLRLSCAVSGIDLSNYAINWVRQAPGKCLEWIGIIWASGTTFYATWAKGRFTISRDNSKNTVYLQMNSLRAEDTAVYYCARTVPGYSTAPYFDLWGQGTLVTVSS
light: DIQMTQSPSSLSASVGDRVTITCRTSEDIYTNLAWYQQKPGKVPKLLIYVAKTLQEGVPSRFSGSGSGTHYTLTISSLQPEDVATYYCLQGFKFPWTFGGGTKVEIKRTVAAPSVFIFPPSDEQLKSGTASVVCLLNNFYPREAKVQWKVDNALQSGNSQESVTEQDSKDSTYSLSSTLTLSKADYEKHKVYACEVTHQGLSSPVTKSFNRGECGGGGSGGGGSGGGGSDIQMTQSPSSVSASVGDRVTITCQSSPSVWSNFLSWYQQKPGKAPKLLIYEASKLTSGVPSRFSGSGSGTDFTLTISSLQPEDFATYYCGGGYSSISDTTFGCGTKVEIKRT
apical to basolateral transcytosis of human IgG in MDCK II clone 15 cells, EC50 [1]: 0.42 nM

Source: US20190270811A1 (UCB, published 2019)
